Experimental data from US20240335558A1, “ISOLATED POLYPEPTIDE AND USE THEREOF” (GLYCO-THERAPY BIOTECHNOLOGY CO., LTD., priority 2021, published 2024).

Legend:
Type in all cases: biochemical
Trastuzumab-G2F = assay: Transfer of GDP-FAmP4Biotin to Trastuzumab-G2F by different HpFTs (% of conversion by MS); settings: donor GDP-FAmP4Biotin 1 mM, enzyme 0.5 mg/mL, 30° C., 3 h; FIG. 1
Procedure: (§1) To 40 mM Tris-HCl (pH 7.5) buffer were added Trastuzumab-G2F (2 mg/mL final), GDP-FAmP4Biotin (1 mM final), MgCl2 (20 mM final), and different HpFT enzymes (HpFT-4HR, HpFT-4HR(M4), HpFT-4HR(M7), HpFT-6HR, HpFT-3HR, HpFT-2HR, HpFT-1HR, or HpFT-0HR) (0.5 mg/mL final) in sequence, and the resulting mixed solution was allowed to react at 30° C. for 3 h. Three parallels were set up for each group. After the reaction time point was reached, to the reaction solution was added 10 mM LacNAc (N-acetyl-D-lactosamine), and the reaction was terminated by a desalting column (Zeba™ Spin Desalting Columns/2 ml/40K, Thermo Fisher Scientific), and finally mass spectrometry was carried out and % of conversion was calculated. % of conversion=(MAR0 peak intensity*0+MAR1peak intensity*1+MAR2 peak intensity*2+MAR3 peak intensity*3+MAR4 peak intensity*4)/4* (MAR0 peak intensity+MAR1 peak intensity+MAR2 peak intensity+MAR3 peak intensity+MAR4 peak intensity)*100%.

[1] = tested on: Trastuzumab-(Fucα1,6)(Galβ1,4)GlcNAc; assay: Transfer of GDP-FAmP4Biotin to Trastuzumab-(Fucα1,6)(Galβ1,4)GlcNAc by different HpFTs; settings: donor GDP-FAmP4Biotin 1 mM, enzyme 0.5 mg/mL, 30° C., 1 h; FIG. 2
Procedure: as §1, with “added Trastuzumab-(Fucα1,6)(Galβ1,4)GlcNAc” for “added Trastuzumab-G2F”, “HpFT-2HR, HpFT-1HR” for “HpFT-2HR, HpFT-1HR,”, “for 1” for “for 3”, “mM LacNA,” for “mM LacNAc (N-acetyl-D-lactosamine),”, “peak intensity*2)/2*” for “peak intensity*2+MAR3 peak intensity*3+MAR4 peak intensity*4)/4*”, “peak” for “peak intensity+MAR3 peak intensity+MAR4 peak”

[2] = tested on: Trastuzumab-(GalNAzβ1,4)GlcNAc; assay: Transfer of GDP-FAmP4Biotin to Trastuzumab-(GalNAzβ1,4)GlcNAc by different HpFTs; settings: donor GDP-FAmP4Biotin 1 mM, enzyme 0.5 mg/mL, 30° C., 3 h; FIG. 4
[3] = tested on: Trastuzumab-(GalNAzβ1,4)GlcNAc; assay: HpFT-2HR and HpFT-4HR transferring GDP-FAmP4Biotin or GDP-FAzP4Biotin to Trastuzumab-(GalNAzβ1,4)GlcNAc; settings: enzyme 0.5 mg/mL, 6 h, FIG. 6(B)
Procedure: as §1, with “added Trastuzumab-(Fucα1,6)(Galβ1,4)GlcNAc” for “added Trastuzumab-G2F”, “HpFT-2HR, HpFT-1HR” for “HpFT-2HR, HpFT-1HR,”, “for 1” for “for 3”, “mM LacNA,” for “mM LacNAc (N-acetyl-D-lactosamine),”, “peak intensity*2)/2*” for “peak intensity*2+MAR3 peak intensity*3+MAR4 peak intensity*4)/4*”, “peak” for “peak intensity+MAR3 peak intensity+MAR4 peak”
To 40 mM Tris-HCl (pH 7.5) buffer were added Trastuzumab-(GalNAzβ1,4)GlcNAc (2 mg/mL final), GDP-FAmP4Biotin or GDP-FAzP4Biotin (1 mM final), MgCl2 (20 mM final), and HpFT-2HR or HpFT-4HR (0.5 mg/mL final) in sequence, and the resulting mixed solution was allowed to react at 30 t for 6 h. Three parallels were set up for each group. After the reaction time point was reached, to the reaction solution was added 10 mM LacNAc, and the reaction was terminated by a desalting column (Zeba™ Spin Desalting Columns/2 ml/40K, Thermo Fisher Scientific), and finally mass spectrometry was carried out and % of conversion was calculated. % of conversion was calculated according to Example 18.

Durvalumab-G2F = assay: HpFT-2HR and HpFT-4HR transferring GDP-FAmSucMMAE to Durvalumab-G2F; settings: donor 1 mM, enzyme 0.5 mg/mL, 30° C., 3 h and 6 h; FIG. 7B
Procedure: as §1
(§2) To 40 mM Tris-HCl (pH 7.5) buffer were added Trastuzumab-G2F or Durvalumab-G2F (2 mg/mL final), GDP-FAmSucMMAE (1 mM final), MgCl2 (20 mM final), and HpFT-2HR or HpFT-4HR (0.5 mg/mL final) in sequence, and the resulting mixed solution was allowed to react at 30° C. for 3 h and 6 h. Three parallels were set up for each group. […]

[4] = tested on: Trastuzumab-(GalNAzβ1,4)GlcNAc; assay: HpFT-2HR and HpFT-4HR transferring GDP-FAmSucMMAE to Trastuzumab-(GalNAzβ1,4)GlcNAc; settings: donor 1 mM, enzyme 0.5 mg/mL, 30° C., 3 h and 6 h; FIG. 8A
Procedure: as §1, with “added Trastuzumab-(Fucα1,6)(Galβ1,4)GlcNAc” for “added Trastuzumab-G2F”, “HpFT-2HR, HpFT-1HR” for “HpFT-2HR, HpFT-1HR,”, “for 1” for “for 3”, “mM LacNA,” for “mM LacNAc (N-acetyl-D-lactosamine),”, “peak intensity*2)/2*” for “peak intensity*2+MAR3 peak intensity*3+MAR4 peak intensity*4)/4*”, “peak” for “peak intensity+MAR3 peak intensity+MAR4 peak”
as §2, with “Trastuzumab-(GalNAzβ1,4)GlcNAc” for “Trastuzumab-G2F”, “Durvalumab-(GalNAzβ1,4)GlcNAc” for “Durvalumab-G2F”

[5] = tested on: Durvalumab-(GalNAzβ1,4)GlcNAc; assay: HpFT-2HR and HpFT-4HR transferring GDP-FAmSucMMAE to Durvalumab-(GalNAzβ1,4)GlcNAc; settings: donor 1 mM, enzyme 0.5 mg/mL, 30° C., 3 h and 6 h; FIG. 8B
Procedure: as §1, with “added Trastuzumab-(Fucα1,6)(Galβ1,4)GlcNAc” for “added Trastuzumab-G2F”, “HpFT-2HR, HpFT-1HR” for “HpFT-2HR, HpFT-1HR,”, “for 1” for “for 3”, “mM LacNA,” for “mM LacNAc (N-acetyl-D-lactosamine),”, “peak intensity*2)/2*” for “peak intensity*2+MAR3 peak intensity*3+MAR4 peak intensity*4)/4*”, “peak” for “peak intensity+MAR3 peak intensity+MAR4 peak”
as §2, with “Trastuzumab-(GalNAzβ1,4)GlcNAc” for “Trastuzumab-G2F”, “Durvalumab-(GalNAzβ1,4)GlcNAc” for “Durvalumab-G2F”

[6] = tested on: Trastuzumab-(Galβ1,4)GlcNAc; assay: HpFT-2HR and HpFT-4HR transferring GDP-FAmSucMMAE to Trastuzumab-(Galβ1,4)GlcNAc; settings: donor 1 mM, enzyme 0.5 mg/mL, 30° C., 1 h and 2 h; FIG. 9
Procedure: as §1, with “added Trastuzumab-(Fucα1,6)(Galβ1,4)GlcNAc” for “added Trastuzumab-G2F”, “HpFT-2HR, HpFT-1HR” for “HpFT-2HR, HpFT-1HR,”, “for 1” for “for 3”, “mM LacNA,” for “mM LacNAc (N-acetyl-D-lactosamine),”, “peak intensity*2)/2*” for “peak intensity*2+MAR3 peak intensity*3+MAR4 peak intensity*4)/4*”, “peak” for “peak intensity+MAR3 peak intensity+MAR4 peak”
as §2, with “added Trastuzumab-(Galβ1,4)GlcNAc” for “added Trastuzumab-G2F or Durvalumab-G2F”, “for 1” for “for 3”, “and 2” for “and 6”

B1: HpFT-2HR: H. pylori α-1,3-fucosyltransferase variant: catalytically active domain, two heptapeptide repeat sequences and C-terminus fused His tag (protein)
chain: MFQPLLDAFIESASIEKMVSKSPPPPLKIAVANWWGDEEIKEFKKSVLYFILSQRYAITLHQNPNESSDLVFSNPLGAARKILSYQNTKRVFYTGENESPNFNLFDYAIGFDELDFNDRYLRMPLYYAHLHYEAELVNDTTAPYKLKDNSLYALKKPSHHFKENHPNLCAVVNDESDLLKRGFASFVASNANAPMRNAFYDALNSIEPVTGGGSVRNTLGYKVGNKSEFLSQYKFNLCFENSQGYGYVTEKILDAYFSHTIPIYWGSPSVAKDFNPKSFVNVHDFNNFDEAIDYIKYLHTHPNAYLDMLYENPLNTLDGKAYFYQDLSFKKILDFFKTILENDTIYHNNPFIFYRDLHEPLISIDDLRVNYDDLRVNYLEHHHHHH
modifications: Catalytically active domain of Helicobacter pylori Alpha-(1,3)-fucosyltransferase (GenBank No.AAD07710.1) with 2 heptapeptide repeats and a C-terminal His tag
Trastuzumab-G2F
  catalytic activity among the HpFT variants: highest catalytic activity
  catalytic activity as compared with HpFT-4HR (% of conversion): significantly improved catalytic activity
[1]
  catalytic activity as compared with HpFT-4HR (% of conversion): significantly improved catalytic activity
[2]
  catalytic activity among the HpFT variants: relatively high catalytic activity
  catalytic activity as compared with HpFT-4HR (% of conversion): significantly improved catalytic activity
[3]; donor 1 mM
  activity in catalyzing the transfer of GDP-FAmP4Biotin relative to transfer of GDP-FAzP4Biotin: significantly higher
[3]; donor GDP-FAmP4Biotin 1 mM
  activity in catalyzing the transfer of GDP-FAmP4Biotin, as compared with HpFT-4HR: significantly improved activity
[3]; donor GDP-FAzP4Biotin 1 mM
  activity in catalyzing the transfer of GDP-FAzP4Biotin, as compared with HpFT-4HR: significantly improved activity
Durvalumab-G2F
  activity in catalyzing the transfer of GDP-FAmSucMMAE, as compared with HpFT-4HR: significantly improved activity
[4]
  activity in catalyzing the transfer of GDP-FAmSucMMAE, as compared with HpFT-4HR: significantly improved activity
[5]
  activity in catalyzing the transfer of GDP-FAmSucMMAE, as compared with HpFT-4HR: significantly improved activity
[6]
  activity in catalyzing the transfer of GDP-FAmSucMMAE, as compared with HpFT-4HR: significantly improved activity
